Results from the supplement of paper PMC11246515.
± gives the standard deviation of the averaged measurements.

Assay: total protein half-life in vivo (active degradation + dilution); higher = more stable protein
[1] = E. coli NCM3722 delta-clpP delta-lon delta-hslV, growth: N-lim chemostat, doubling time 6 h
[2] = E. coli NCM3722 delta-clpP, growth: N-lim chemostat, doubling time 6 h
[3] = E. coli NCM3722 delta-hslV, growth: N-lim chemostat, doubling time 6 h
[4] = E. coli NCM3722 delta-lon, growth: N-lim chemostat, doubling time 6 h
[5] = E. coli NCM3722 delta-smpB, growth: N-lim chemostat, doubling time 6 h
[6] = wild type E. coli NCM3722, growth: C-lim chemostat, doubling time 3 h
[7] = wild type E. coli NCM3722, growth: C-lim chemostat, doubling time 6 h
[8] = wild type E. coli NCM3722, growth: C-lim chemostat, doubling time 12 h
[9] = wild type E. coli NCM3722, growth: N-lim chemostat, doubling time 6 h
[10] = wild type E. coli NCM3722, growth: N-lim chemostat, doubling time 12 h
[11] = wild type E. coli NCM3722, growth: P-lim chemostat, doubling time 6 h
[12] = wild type E. coli NCM3722, growth: P-lim chemostat, doubling time 12 h

Sequence | total protein half-life in vivo [1] [h] | total protein half-life in vivo [2] [h] | total protein half-life in vivo [3] [h] | total protein half-life in vivo [4] [h] | total protein half-life in vivo [5] [h] | total protein half-life in vivo [6] [h] | total protein half-life in vivo [7] [h] | total protein half-life in vivo [8] [h] | total protein half-life in vivo [9] [h] | total protein half-life in vivo [10] [h] | total protein half-life in vivo [11] [h] | total protein half-life in vivo [12] [h]
MKYDLIIIGSGSVGAAAGYYATRAGLNVLMTDAHMPPHQHGSHHGDTRLIRHAYGEGEKYVPLVLRAQTLWDELSRHNEEDPIFVRSGVINLGPADSTFLANVAHSAEQWQLNVEKLDAQGIMARWPEIRVPDNYIGLFETDSGFLRSELAIKTWIQLAKEAGCAQLFNCPVTAIRHDDDGVTIETADGEYQAKKAIVCAGTWVKDLLPELPVQPVRKVFAWYQADGRYSVKNKFPAFTGELPNGDQYYGFPAENDALKIGKHNGGQVIHSADERVPFAEVASDGSEAFPFLRNVLPGIGCCLYGAACTYDNSPDEDFIIDTLPGHDNTLLITGLSGHGFKFASVLGEIAADFAQDKKSDFDLTPFRLSRFQ | 4.35 ± 1.2 | 3.046 ± 0.022 | 3.23 ± 0.11 | 3.34 ± 0.26 | 3.1 ± 0.046 | 2.99 ± 0.11 | 5.49 ± 0.24 | 6.92 ± 1.5 | 3.11 ± 0.23 | 5.46 ± 0.065 | 5.55 ± 0.089 | 10.5 ± 0.16
MLQFILRRLGLVIPTFIGITLLTFAFVHMIPGDPVMIMAGERGISPERHAQLLAELGLDKPMWQQYLHYIWGVMHGDLGISMKSRIPVWEEFVPRFQATLELGVCAMIFATAVGIPVGVLAAVKRGSIFDHTAVGLALTGYSMPIFWWGMMLIMLVSVHWNLTPVSGRVSDMVFLDDSNPLTGFMLIDTAIWGEDGNFIDAVAHMILPAIVLGTIPLAVIVRMTRSSMLEVLGEDYIRTARAKGLTRMRVIIVHALRNAMLPVVTVIGLQVGTLLAGAILTETIFSWPGLGRWLIDALQRRDYPVVQGGVLLVATMIILVNLLVDLLYGVVNPRIRHKK [P0AEF8] | 6.91 ± 0.36 | 6.54 ± 1.1 | 5.46 ± 0.53 | 5.39 ± 0.46 | 5.95 ± 0.45 | 3.53 ± 0.4 | 6.656 ± 0.039 | 13.1 ± 1.5 | 6.42 ± 0.19 | 13 ± 3.1 | 5.96 ± 0.41 | 11.5 ± 1
MSTKPLFLLRKAKKSSGEPDVVLWASNDFESTCATLDYLIVKSGKKLSSYFKAVATNFPVVNDLPAEGEIDFTWSERYQLSKDSMTWELKPGAAPDNAHYQGNTNVNGEDMTEIEENMLLPISGQELPIRWLAQHGSEKPVTHVSRDGLQALHIARAEELPAVTALAVSHKTSLLDPLEIRELHKLVRDTDKVFPNPGNSNLGLITAFFEAYLNADYTDRGLLTKEWMKGNRVSHITRTASGANAGGGNLTDRGEGFVHDLTSLARDVATGVLARSMDLDIYNLHPAHAKRIEEIIAENKPPFSVFRDKFITMPGGLDYSRAIVVASVKEAPIGIEVIPAHVTEYLNKVLTETDHANPDPEIVDIACGRSSAPMPQRVTEEGKQDDEEKPQPSGTTAVEQGEAETMEPDATEHHQDTQPLDAQSQVNSVDAKYQELRAELHEARKNIPSKNPVDDDKLLAASRGEFVDGISDPNDPKWVKGIQTRDCVYQNQPETEKTSPDMNQPEPVVQQEPEIACNACGQTGGDNCPDCGAVMGDATYQETFDEESQVEAKENDPEEMEGAEHPHNENAGSDPHRDCSDETGEVADPVIVEDIEPGIYYGISNENYHAGPGISKSQLDDIADTPALYLWRKNAPVDTTKTKTLDLGTAFHCRVLEPEEFSNRFIVAPEFNRRTNAGKEEEKAFLMECASTGKTVITAEEGRKIELMYQSVMALPLGQWLVESAGHAESSIYWEDPETGILCRCRPDKIIPEFHWIMDVKTTADIQRFKTAYYDYRYHVQDAFYSDGYEAQFGVQPTFVFLVASTTIECGRYPVEIFMMGEEAKLAGQQEYHRNLRTLSDCLNTDEWPAIKTLSLPRWAKEYAND | 6.07 ± 0.4 | 3.46 |  |  |  | 3.65 ± 0.15 | 4.2 ± 0.11 | 5.8 ± 1.9 |  | > 16 | 2.43 | 4.82
MLILISPAKTLDYQSPLTTTRYTLPELLDNSQQLIHEARKLTPPQISTLMRISDKLAGINAARFHDWQPDFTPANARQAILAFKGDVYTGLQAETFSEDDFDFAQQHLRMLSGLYGVLRPLDLMQPYRLEMGIRLENARGKDLYQFWGDIITNKLNEALAAQGDNVVINLASDEYFKSVKPKKLNAEIIKPVFLDEKNGKFKIISFYAKKARGLMSRFIIENRLTKPEQLTGFNSEGYFFDEDSSSNGELVFKRYEQR [P0A8I3] | 2.9 ± 0.42 | 2.57 ± 0.31 | 2.665 ± 0.025 | 3.07 ± 0.18 | 2.63 ± 0.37 | 2.66 ± 0.069 | 3.57 ± 0.5 | 6.32 ± 0.39 | 2.53 ± 0.26 | 3.4738 ± 0.0021 | 3.39 ± 0.057 | 6.11 ± 0.75
